Laboratory results from US20220041715A1.
Where two headings read alike, the source gives them in different places.

Assays:
HCoV-229E S1 (HCoV-229E) = HCoV-229E S1 (HCoV-229E) (UniProt P15423); assay: ELISA
MERS CoV S1 (MERS CoV) = MERS CoV S1 (MERS CoV) (UniProt K9N5Q8); assay: ELISA
SARS CoV RBD (SARS-CoV) = SARS CoV RBD (SARS-CoV) (UniProt P59594); assay: ELISA
HCoV-NL63 S1 (HCoV-NL63) = HCoV-NL63 S1 (HCoV-NL63) (UniProt Q6Q1S2); assay: ELISA
[1] = target: SARS-CoV-2 receptor binding domain (RBD) (SARS-CoV-2) (UniProt P0DTC2); assay: ELISA
[2] = target: SARS-CoV-2 spike S1 (SARS-CoV-2) (UniProt P0DTC2); assay: ELISA
[3] = target: SARS-CoV-2 receptor binding domain (RBD) (SARS-CoV-2) (UniProt P0DTC2); assay: ELISA; remark: listed apart in the source
[4] = target: SARS-CoV-2 spike on GFP reporter pseudotype virus (Wuhan-Hu-1) (SARS-CoV-2) (UniProt P0DTC2); assay: cell-based or functional assay
[5] = target: SARS-CoV-2 receptor binding domain (RBD) (SARS-CoV-2) (UniProt P0DTC2); assay: RBD:ACE2 blocking ELISA (RBD coated, ACE2-His)

Substance | EC50 (HCoV-229E S1 (HCoV-229E)) [µg/mL] | EC50 (MERS CoV S1 (MERS CoV)) [µg/mL] | EC50 (SARS CoV RBD (SARS-CoV)) [µg/mL] | EC50 (HCoV-NL63 S1 (HCoV-NL63)) [µg/mL] | EC50 [1] [µg/mL] | peak OD signal [1] [OD] | EC50 [2] [µg/mL] | peak OD signal [2] [OD] | EC50 [3] [µg/mL] | CoV-2 pseudotype neutralization IC50 [4] [ng/mL] | IC50 [5] [µg/mL]
IVIG (Gamunex; Grifols) (antibody) | 96 | 1330 | 1280 | 140 | 1270 | 2.26 | 1410 | 1.99 | 1250 | – | –
rCIG (recombinant coronavirus-2 immune globulin; recombinant anti-coronavirus 19 hyperimmune gammaglobulin) (antibody) | – | – | 0.6 | – | 0.1 | – | 0.092 | – | – | 430 | 2.2
